Measurements from patent publication US7045604B2, “Family of genes encoding apoptosis-related peptides, peptides encoded thereby and methods of use thereof” (Tanox, Inc., priority 1996, dated 2006).
Numbered stars: 1 amine (or outer) side, 2 acyl side, 3 side chain; on linkers, the order of the positions; unused ones are H or OH. Bridge positions count the residues as written; N and C are the ends. Square brackets hold non-standard residues; d marks the D form. Peptide text beside a SMILES is read from it. I, II: the chains in the order shown. Actinocin(9to1) = Cc1c2oc3c(C)ccc(C(=O)[*:1])c3nc-2c(C(=O)[*:2])c(N)c1=O; NMeV = CN[C@H](C(=O)O)C(C)C; Sar = CNCC(=O)O

Tests used:
C3H/10T1/2 cells = assay: Apoptosis of exponentially proliferating or quiescent 10T1/2 cells (adherent / non-adherent cell count); assay type: cell-based, mouse; settings: for apoptosis / cell death: quiescent 10T1/2 cells arrested in G0
Protocol: C3H/10T1/2 cells were grown in Eagle's basal medium (BME) supplemented with 10% heat-inactivated fetal bovine serum (FBS) at 37° C. in a humidified 5% CO2 atmosphere without antibiotics. Cells were plated at 2×10^3 cells/mL and fed every 3–4 days. Approximately 2 weeks after the initial seeding, the cells were completely quiescent and few if any mitotic cells were present. To analyze the effect of serum deprivation or cycloheximide treatment, the exponentially proliferating (approximately 75% confluent) or quiescent cultures were transferred to serum-free medium or medium supplemented with 10 μg/mL cycloheximide. At 24 hours, the apoptotic (i.e. non-adherent) cells and the non-apoptotic (i.e. adherent) cells were collected separately and their amounts were evaluated using a cell counter (Coulter Counter® ZM). Serum free conditioned medium was obtained after 24 hour incubation of quiescent 10T1/2 cells in BME. The RNA was isolated by the guanidine-isothiocyanate method described in Chomezinski and Sacchi (1987) Anal. Biochem., 162:156–59. 20 μg samples of total RNA were subjected to electrophoresis in a 1.2% agarose formaldehyde gel. Sambrook et al. (eds) (1989).

msarp1 = msarp1 expression in serum deprived exponentially growing 10T1/2 cells (Northern hybridization); assay type: cell-based, mouse; settings: cells grown in serum free media supplemented with TPA
Protocol: Isolated DNA fragments were labeled with [^32P]dCTP (3000 Ci/mmol, Amersham) in a random priming reaction according to Feinberg and Vogelstein, (1982), supra. Hybridization was carried out according to the standard protocol described in Sambrook et al. (1989), supra. The membranes were washed two times with 2×SSC at room temperature for 30 minutes. Following two additional washes at 56° C. in 0.1×SSC, 0.1% SDS, the membranes were autoradiographed onto a Kodak X-Omat® films.
Since it has previously been shown that media conditioned with exponentially growing 10T1/2 cells also prevents apoptosis, we also analyzed msarp1 expression in serum deprived exponentially growing cells. RNA was isolated at different time points after removal of serum.

[1] = tested on: MCF7 breast adenocarcinoma cell line; assay: Sensitivity of stably transfected MCF7 cells to cytotoxic stimuli; assay type: cell-based, human
Source text: The MCF7 breast adenocarcinoma cell line was chosen as a model to study the involvement of SARP proteins in the processes of apoptosis. The programmed cell death of these cells induced by different agents has been well characterized. Zyed et al. (1994) Cancer Res. 54:825–831. […] MCF7 cells were stably transfected with a pcDNA3 mammalian expression vector bearing full length msarp1 or hsarp2. The transfectants expressing msarp1 and hsarp2 were selected by Northern hybridization. […] Hannun and Obeid (1995) T. Biochem. Sci. 20:73–7; and Kolesnick and Fuks (1995) J. Exp. Med. 181:1949–52.
(§1) Transfection of MCF7. MCF7 cells were transfected with the pcDNA3 mammalian expression vector (Invitrogen), containing either no insert, msarp1, or hsarp2 cDNAs, using LipofectAMINE reagent (Gibco) according to manufacturer's protocol. Stable transfectants and two-three weeks later single cell originated clones were selected with 1 mg/ml G418 and expression of the respective genes was confirmed by Northern hybridization.

β-catenin = assay: Intracellular β-catenin in MCF7 transfectants (Western immunoblot, immunohistochemistry); assay type: cell-based, human; settings: for intracellular concentration of β-catenin: Western immunoblot, MCF7 transfectants vs pcDNA3 control
Protocol: To determine whether SARPs interfered with Wnt-frizzled protein interaction, the expression of β-catenin in MCF7-transfectants was compared. The experiment was performed as follows. Cell Cultures. MCF7 human breast adenocarcinoma cells were plated at 2×10^5 cells/ml and cultured in Modified Eagle Medium (MEM) supplemented with 10% FBS. Serum free conditioned medium was obtained after 24 hour incubation of quiescent MCF7 cells in MEM.
as §1
Immunohistochemistry. Paraformaldehyde-fixed transfected MCF7 cells grown on 4-well Lab-Tek® chamber slides were probed by anti-β-catenin monoclonal IgG (Transduction Laboratories). Staining was performed by avidin-biotin-peroxydase system (Vector Laboratories) using diaminobenzidine as a substrate. IgG isolated from preimmune serum was used as a negative control.
Western Immunoblot. For Western analysis the samples of conditioned media were concentrated using CENTRIPREP®-10 concentrators (AMICON). Cells were harvested in extraction buffer consisting of 20 mM tris-HCl (pH 7.8), 5 mM MgCl2, 250 mM sucrose, 1% NP40. After 1 hour incubation on ice extracts were clarified by centrifugation. Protein concentrations of the cellular extracts were determined using DC Protein Assay kit (Bio Rad). Equal amount of proteins were subjected to SDS/PAGE (Sambrook, J., et al. (1989) Molecular Cloning: A Laboratory Manual (Second ed.) (CSHL Press), transferred onto nitrocellulose membranes, and probed with the anti-GST-mSARP1 polyclonal affinity purified IgG (1 μg/mL) or anti-β-catenin monoclonal IgG (Transduction Laboratories).

[2] = tested on: MCF7 breast carcinoma cells; assay: Viability / apoptosis of MCF7 cells transfected with hsarp2 in pcDNA3; assay type: cell-based, human
Protocol: The NotI/XbaI fragment of hsarp2 was inserted into the NotI/XbaI sites of the mammalian expression vector pcDNA3 (Invitrogen). MCF7 breast carcinoma cells were transfected with this construct using LipofectAMINE reagent (Gibco BRL) according to manufacturer's protocol. The percentage of living cells was estimated by counting the relative amount of adherent cells using a Coulter Counter® (NZ). […] The cells were also treated with hTNF (50 ng/ml) and adriamycin (1 μg/ml). The results obtained are depicted in FIG. 6.

Molecule: C[C@@H]1C[C@@H]([C@H](O)CC2CC(=O)NC(=O)C2)C(=O)[C@@H](C)C1 [cycloheximide]
- apoptosis (C3H/10T1/2 cells; exponentially proliferating 10T1/2 cells, serum deprivation): apoptosis is delayed
- apoptosis / cell death (C3H/10T1/2 cells): rapidly induces death

Molecule: Cc1c2oc3c(C)ccc(C(=O)N[C@@H]4C(=O)N[C@H](C(C)C)C(=O)N5CCC[C@H]5C(=O)N(C)CC(=O)N(C)[C@@H](C(C)C)C(=O)O[C@@H]4C)c3nc-2c(C(=O)N[C@@H]2C(=O)N[C@H](C(C)C)C(=O)N3CCC[C@H]3C(=O)N(C)CC(=O)N(C)[C@@H](C(C)C)C(=O)O[C@@H]2C)c(N)c1=O [actinomycin D] (I: T[dV]P[Sar][NMeV] / II: T[dV]P[Sar][NMeV]; ester I:1-I:C, II:1-II:C; linker I:N-II:N via Actinocin(9to1))
- apoptosis / cell death (C3H/10T1/2 cells): Apoptosis of G0 is also induced

Molecule: CCCCCCCCCCCCCC(=O)O[C@@H]1[C@@H](C)[C@@]2(O)[C@@H](C=C(CO)C[C@]3(O)C(=O)C(C)=C[C@@H]23)[C@H]2C(C)(C)[C@]12OC(C)=O [TPA]
- induction of msarp1 message (msarp1): No induction of msarp1

Molecule: α-amanitin
- apoptosis / cell death (C3H/10T1/2 cells): Apoptosis of G0 is also induced

Molecule: COc1ccc(C[C@H](N)C(=O)N[C@H]2[C@@H](O)[C@H](n3cnc4c(N(C)C)ncnc43)O[C@@H]2CO)cc1 [puromycin]
- apoptosis / cell death (C3H/10T1/2 cells): Apoptosis of G0 is also induced

B1: hSARP2: human secreted apoptosis related protein of 314 amino acids encoded by hsarp2 cDNA, SEQ ID NO: 18 (protein)
chain: SEYDYVSFQSDIGPYQSGRFYTKPPQCVDIPADLRLCHNVGYKKMVLPNLLEHETMAEVKQQASSWVPLLNKNCHAGTQVFLCSLFAPVCLDRPIYPCRWLCEAVRDSCEPVMQFFGFYWPEMLKCDKFPEGDVCIAMTPPNPTEASKPQGTTVCPPCDNELKSEAIIEHLCASEFALRMKIKEVKKENGDKKIVPKKKKPLKLGPIKKKDLKKLVLYLKNGADCPCHQLDNLSHHFLIMGRKVKSQYLLTAIHKWDKKNKEFKNFMKKMKNHECPTFQSVFK
- cell sensitivity to apoptosis induced by TNF [1]: sensitized the cells to apoptosis
- cell sensitivity to apoptosis induced by ceramide [1]: sensitized the cells to apoptosis
- growth rate and cell cycle vs parental cells [1]: not significantly different
- intracellular concentration of β-catenin (β-catenin): decreases the intracellular concentration of β-catenin
- percentage of viable cells ([2]; MCF7 transfected with pcDNA3-hsarp2, adherent cells counted): decrease in the percentage of viable cells
- programmed cell death ([2]; breast carcinoma cell line, increased expression of hsarp2, dose dependent): increase programmed cell death
- percentage of cells undergoing apoptosis in culture ([2]; hsarp2 in expression vector transfected into human cell lines): increases

B2: mSARP1: mouse secreted apoptosis related protein of 295 amino acids encoded by msarp1, SEQ. ID. NO: 2 (protein)
chain: MPRGPASLLLLVLASHCCLGSARGLFLFGQPDFSYKRTNCKPIPANLQLCHGIEYQNMRLPNLLGHETMKEVLEQAGAWIPLVMKQCHPDTKKFLCSLFAPVCLDDLDETIQPCHSLCVQVKDRCAPVMSAFGFPWPDMLECDRFPQDNDLCIPLASSDHLLPATEEAPKVCEACKTKNEDDNDIMETLCKNDFALKIKVKEITYINRDTKIILETKSKTIYKLNGVSERDLKKSVLWLKDSLQCTCEEMNDINAPYLVMGQKQGGELVITSVKRWQKGQREFKRISRSIRKLQC
- cell sensitivity to apoptosis induced by TNF [1]: higher resistance
- cell sensitivity to apoptosis induced by ceramide [1]: higher resistance
- growth rate and cell cycle vs parental cells [1]: not significantly different
- intracellular concentration of β-catenin (β-catenin): not sensitive enough to discern a significant difference
- concentration of β-catenin (β-catenin; immunohistochemistry, MCF7 transfectants): higher concentration of β-catenin
